This experiment concerns the target T1, Aβ1-7 peptide (Homo sapiens (deposited entity)).
T1 construct: amyloid beta peptide (Aβ), cut from amyloid precursor protein (APP), residues 1-7; Additional file 1 names the peptide Aβ1-6; also called amyloid-β1-7; Aβ residues 1–7
T1 chain: DAEFRHD
In words: crystal structure; 3D6 Fab co-crystallised with Aβ1-7 or Aβ1-40 peptide, crystals grown at 22 °C; the Aβ1-40 crystals in 200 mM Zn2+; data at 100 K. The following applies: both partners purified.

The values below come from paper PMC4095729 (Alzheimer's Research & Therapy, 2014).

B1: Recombinant 3D6 Fab (Fab, V domains shown)
VH: EVKLVESGGGLVKPGASLKLSCAASGFTFSNYGMSWVRQNSDKRLEWVASIRSGGGRTYYSDNVKGRFTISRENAKNTLYLQMSSLKSEDTALYYCVRYDHYSGSSDYWGQGTTVTVSS
VL: not shown
notes: also called Fab 3D6
As for B1, the binding result is “binds”.
